In US20230265208A1 one finds number over the gate bar (share of cells in the positive gate) and EC50 data, which are given here for 2 substances.

Experiment [1] deals with MUC1 on HCT116/MUC1 cells (human) (UniProt P15941). Put plainly: flow cytometry on HCT116-MUC1 cells, 5 µg isotype control, 60 min on ice.
For experiment [2] the target is unchanged. The experiment is described as follows: flow cytometry titration on HCT116/MUC1 cells; isotype control.

Sequence of MUC1 on HCT116/MUC1 cells (human) (P15941 24-1255): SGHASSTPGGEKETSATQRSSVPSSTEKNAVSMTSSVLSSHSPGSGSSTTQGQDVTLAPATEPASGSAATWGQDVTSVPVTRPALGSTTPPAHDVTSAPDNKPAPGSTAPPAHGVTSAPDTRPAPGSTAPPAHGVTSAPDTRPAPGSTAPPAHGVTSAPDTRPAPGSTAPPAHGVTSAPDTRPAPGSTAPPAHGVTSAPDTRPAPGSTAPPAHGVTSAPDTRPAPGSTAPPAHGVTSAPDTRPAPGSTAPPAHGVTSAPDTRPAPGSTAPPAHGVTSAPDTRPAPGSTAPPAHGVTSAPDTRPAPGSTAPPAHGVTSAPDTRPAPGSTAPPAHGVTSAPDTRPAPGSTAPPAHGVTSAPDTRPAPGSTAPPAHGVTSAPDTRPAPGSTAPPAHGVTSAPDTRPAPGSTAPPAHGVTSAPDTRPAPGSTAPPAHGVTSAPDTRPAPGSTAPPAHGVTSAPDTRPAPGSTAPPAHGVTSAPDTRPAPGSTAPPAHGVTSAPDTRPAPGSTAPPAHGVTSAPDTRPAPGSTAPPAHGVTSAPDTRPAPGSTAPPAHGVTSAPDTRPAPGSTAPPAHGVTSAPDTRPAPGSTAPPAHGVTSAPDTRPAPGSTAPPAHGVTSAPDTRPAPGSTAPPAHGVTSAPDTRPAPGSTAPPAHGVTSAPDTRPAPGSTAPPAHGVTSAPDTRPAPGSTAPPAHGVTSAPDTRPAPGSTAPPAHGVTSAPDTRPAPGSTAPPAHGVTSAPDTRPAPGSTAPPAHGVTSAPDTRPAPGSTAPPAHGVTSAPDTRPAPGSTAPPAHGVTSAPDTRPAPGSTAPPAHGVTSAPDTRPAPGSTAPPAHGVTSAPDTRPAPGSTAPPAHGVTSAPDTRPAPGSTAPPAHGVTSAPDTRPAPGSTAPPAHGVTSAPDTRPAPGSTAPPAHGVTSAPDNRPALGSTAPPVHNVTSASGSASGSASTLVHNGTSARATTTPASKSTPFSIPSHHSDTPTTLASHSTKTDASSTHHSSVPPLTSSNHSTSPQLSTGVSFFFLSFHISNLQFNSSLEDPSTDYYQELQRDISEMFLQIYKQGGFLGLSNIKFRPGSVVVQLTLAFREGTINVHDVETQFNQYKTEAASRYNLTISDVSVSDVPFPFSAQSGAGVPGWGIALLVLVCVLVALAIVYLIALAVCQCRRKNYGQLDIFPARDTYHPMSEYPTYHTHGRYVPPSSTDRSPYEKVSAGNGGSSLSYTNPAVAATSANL

In experiment [1], Control (antibody) gave a number over the gate bar (share of cells in the positive gate) of 0.6.
The term EC50 denotes the concentration giving half of the maximal effect. Read a low EC50 as an effect from little substance. In experiment [2], Human IgG (antibody) had an EC50 of 0.292 nM.
